Target: SARS-CoV-2 RBD-Fc (SARS-CoV-2) (UniProt P0DTC2)
Experiment: BLI

Row | Substance | koff [s⁻¹] | avidity [pM]
1 | IgG1 ab1 (from UniProt P01857) | 4e-05 | 
2 | IgG1 ab1 (antibody) |  | 160
